The record followed here is publication PMC12122975, “Structures of the Escherichia coli type 1 pilus during pilus rod assembly and after assembly termination” (Nature Communications, 2025).

The labels stand for the following.
T1: FimD, type 1 pilus assembly platform (usher) (E. coli, UniProt P30130 46-878)
T1 sequence: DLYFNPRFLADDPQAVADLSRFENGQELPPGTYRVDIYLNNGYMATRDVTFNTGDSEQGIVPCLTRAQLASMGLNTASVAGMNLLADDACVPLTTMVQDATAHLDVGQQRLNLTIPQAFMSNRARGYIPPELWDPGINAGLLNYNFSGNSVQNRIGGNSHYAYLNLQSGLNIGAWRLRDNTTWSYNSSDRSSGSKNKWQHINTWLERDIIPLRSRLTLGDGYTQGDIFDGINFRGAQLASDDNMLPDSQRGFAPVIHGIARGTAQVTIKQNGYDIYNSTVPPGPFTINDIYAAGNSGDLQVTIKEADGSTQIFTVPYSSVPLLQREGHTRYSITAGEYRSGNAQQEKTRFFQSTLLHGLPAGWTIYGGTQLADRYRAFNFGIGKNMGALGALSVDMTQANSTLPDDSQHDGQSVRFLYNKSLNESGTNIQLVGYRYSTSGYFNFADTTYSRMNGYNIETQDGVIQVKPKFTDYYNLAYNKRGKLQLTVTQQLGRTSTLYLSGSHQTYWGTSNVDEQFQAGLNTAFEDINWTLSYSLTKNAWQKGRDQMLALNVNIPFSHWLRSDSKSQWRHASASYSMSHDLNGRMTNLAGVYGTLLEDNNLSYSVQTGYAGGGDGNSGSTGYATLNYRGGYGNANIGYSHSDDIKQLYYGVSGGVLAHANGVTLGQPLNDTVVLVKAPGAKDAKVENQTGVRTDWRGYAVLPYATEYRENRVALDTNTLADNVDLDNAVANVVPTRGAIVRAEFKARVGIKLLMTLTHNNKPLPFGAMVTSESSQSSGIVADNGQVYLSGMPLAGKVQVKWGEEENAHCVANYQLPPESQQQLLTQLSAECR

B1: FimCHis, His-tagged type 1 pilus assembly chaperone FimC (natural protein)
chain: GVALGATRVIYPAGQKQEQLAVTNNDENSTYLIQSWVENADGVKDGRFIVTPPLFAMKGKKENTLRILDATNNQLPQDRESLFWMNVKAIPSMDKSKLTENTLQLAIISRIKLYYRPAKLALPPDQAAEKLRFRRSANSLTLINPTPYYLTVTELNAGTRVLENALVPPMGESTVKLPSDAGSNITYRTINDYGALTPKMTGVME
notes: source: E. coli BL21(DE3) (pFimCHis-cyt), purified (HisTrap, Source 30S); also co-expressed with FimD and FimH in E. coli Tuner (pETS1001) and purified as FimDCH
B2: FimC, type 1 pilus assembly chaperone (untagged) (natural protein)
chain: B1 chain
notes: source: E. coli BL21(DE3) (pFimC-cyt), purified (Q Sepharose, Source 30S, Phenyl Sepharose); also co-expressed with FimF or FimG in E. coli HM125 and purified from periplasmic extract as FimFC or FimGC
B3: FimA, main subunit of the type 1 pilus rod (natural protein)
chain: AATTVNGGTVHFKGEVVNAACAVDAGSVDQTVQLGQVRTASLAQEGATSSAVGFNIQLNDCDTNVASKAAVAFLGTAIDAGHTNVLALQSSAAGSATNVGVQILDRTGAALTLDGATFSSETTLNNGTNTIPFQARYFATGAATPGAANADATFKVQYQ
notes: also called FimAn; FimAn-1
B4: FimI, assembly terminator subunit of the type 1 pilus (natural protein)
chain: GNKWNTTLPGGNMQFQGVIIAETCRIEAGDKQMTVNMGQISSNRFHAVGEDSAPVPFVIHLRECSTVVSERVGVAFHGVADGKNPDVLSVGEGPGIATNIGVALFDDEGNLVPINRPPANWKRLYSGSTSLHFIAKYRATGRRVTGGIANAQAWFSLTYQ

Holding throughout (experiment): cryo-EM structure
Data set [1] deals with T1, FimD, type 1 pilus assembly platform …. The settings on record: both partners purified.
In data set [2] the target is B2. The settings on record: both partners purified.
Data set [3] has as its target B1. The settings on record: both partners purified.
For data set [4], the target named is B4. The settings on record: both partners purified.
The data set “cryo-EM structure” concerns the molecule itself.

Take B1: in data set [1], the binding result is on record as “binds”.

Take B2: in data set [1], the binding result is reported as “binds”.

For B3, the binding result (in data set [1]; in data set [2]; in data set [3]; in data set [4]; in the data set “cryo-EM structure”) was “binds” each time.

Regarding B4, the binding result (in data set [1]; in data set [3]; in “cryo-EM structure”) was “binds” throughout.
